Source: patent publication US20250339569A1 (3B PHARMACEUTICALS, published 2025)
Starred links: 1 amine or outer side, 2 acyl side, 3 side chain; linkers in the order of their positions; H or OH if unused. Positions of bridges follow the written chain, without caps; N, C: chain ends. Non-standard residues stand in square brackets, D forms with d. Primed or numbered codes have the meaning given here. *: point of attachment. Aph(SaPr)(3) = 4-amino-L-phenylalanine with ring amino acylated by 3-sulfamoylpropanoic acid, NS(=O)(=O)CCC(=O)Nc1ccc(C[C@H](N[*:1])C(=O)[*:2])cc1; PPAc(3) = 4-carboxymethyl piperazine linker between DOTA and Gln1, O=C(CN1CCN([*:1])CC1)[*:2]; 111In‑DOTA = O=C([O-])CN1CCN(CC(=O)[O-])CCN(CC(=O)*)CCN(CC(=O)[O-])CC1.[111In+3]; Phe(3-NHCO(CH2)3SO2NH2) = N[C@@H](Cc1cccc(NC(=O)CCCS(N)(=O)=O)c1)C(=O)O; APAc″ = 2-(4-(amino)piperidin-1-yl)acetic acid, NC1CCN(CC(=O)*)CC1; DOTA = O=C(O)CN1CCN(CC(=O)O)CCN(CC(=O)*)CCN(CC(=O)O)CC1; PPAc = 4-carboxymethyl piperazine linker; mXylylene = c1cc(C[*:1])cc(C[*:2])c1; APAc = not defined here; Dap = NC[C@H](N)C(=O)O

How the values were obtained:
[1] = target: Human carbonic anhydrase IX Fc-fusion protein (CAIX, Sino Biological, 10107-H02H) (human, UniProt Q16790 38-414); assay: SPR (Biacore T200), CAIX-Fc captured by anti-human Fc antibody, peptide as analyte, single cycle kinetics, 25 C, 1:1 Langmuir fit
Protocol: Surface Plasmon Resonance (SPR) studies were performed on a Biacore™ T200 using a ligand capture approach. Basically, anti-human Fc antibodies were immobilized on the surface of a sensor chip and CAIX was captured on the functionalized surface via its Fc Tag.

[2] = target: T1, human carbonic anhydrase IX (CAIX) (human, UniProt Q16790 38-459); assay: FACS competition, HT-29 cells, tracer 3BP-2776; pIC50 category A: >8.0
Protocol: CAIX-expressing human HT-29 colorectal cancer cells (DSMZ, RRID: CVCL_0320) were cultured in McCoys's 5A modified medium (Biochrom, #F1015) including 10% fetal calf serum (FCS), 2 mM L-glutamine, 100 U/ml penicillin and 100 μg/mL streptomycin. Cells were detached with Accutase (Biolegend, #423201) and washed in FACS buffer (PBS including 1% FCS). Cells were diluted in FACS buffer to a final concentration of 500.000 cells per ml. 200 μL of the cell suspension were transferred to a u-shaped non-binding 96-well plate (Greiner) and cells were washed in ice-cold FACS buffer.
When biotinylated compounds were used an additional incubation step with 1 μg/mL APC-Streptavidin (Miltenyi; #130-106-791) in 50 μL FACS buffer for 30 minutes on ice was performed.
Cells were washed twice with ice-cold FACS buffer and analyzed in an Attune NxT flow cytometer (Thermo Fisher). Median fluorescence intensities (MFI) of the APC/Cy5-channel were calculated by Attune NxT software.

[3] = target: T2, human carbonic anhydrase IV (CAIV), biotinylated (human, UniProt P22748 19-283, limits assumed, biotinylated); assay: SPR, biotinylated CAIV captured (Biotin CAPture)
T2 construct: Bought (SinoBiological, Cat # printed 10472-1H081H); also called hCAIV-bio
T2 sequence (P22748 19-283 limits assumed): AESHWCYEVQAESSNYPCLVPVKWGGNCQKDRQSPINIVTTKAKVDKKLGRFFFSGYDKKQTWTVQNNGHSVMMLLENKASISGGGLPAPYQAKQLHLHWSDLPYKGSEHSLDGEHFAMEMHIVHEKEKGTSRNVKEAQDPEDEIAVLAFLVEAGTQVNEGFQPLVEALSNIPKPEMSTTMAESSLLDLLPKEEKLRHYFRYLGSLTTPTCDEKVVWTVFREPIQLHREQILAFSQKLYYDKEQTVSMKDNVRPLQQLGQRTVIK
Excerpt: (§1) For each test compound, SPR raw data in the form of resonance units (RU) were plotted as sensorgrams using the Biacore™ T200 control software. The signal from the blank sensorgram was subtracted from that of the test compound sensorgram (blank corrected). The blank corrected sensorgram was corrected for baseline drift by subtracting the sensorgram of a SCK run without the test compound (running buffer only). […] Raw data and fit results were imported as text files in IDBS. The pKD value (negative decadic logarithm of dissociation constant) was calculated in the IDBS excel template.

[4] = target: T3, Fc-fusion protein of human carbonic anhydrase IX (human, UniProt Q16790 38-414); assay: SPR, CAIX; pKD category A: >8.0
Protocol: Stock solutions of test compounds were prepared by dissolving each compound in DMSO. DMSO stock solution were diluted 1:1000 in Running Buffer without DMSO. […] SPR binding analyses were performed in Single Cycle Kinetic (SCK) mode at 25° C.
as §1

[5] = target: T3, Fc-fusion protein of human carbonic …; assay: SPR, captured hCAIX-Fc; t1/2 category A: >15.0 min
[6] = target: T4, human carbonic anhydrase XII (CAXII), biotinylated (human, UniProt O43570 25-301, biotinylated); assay: SPR, biotinylated CAXII captured (Biotin CAPture)
T4 construct: Bought (SinoBiological Cat #10617-H08H); also called hCAXII-bio
T4 sequence (O43570 25-301 limits assumed): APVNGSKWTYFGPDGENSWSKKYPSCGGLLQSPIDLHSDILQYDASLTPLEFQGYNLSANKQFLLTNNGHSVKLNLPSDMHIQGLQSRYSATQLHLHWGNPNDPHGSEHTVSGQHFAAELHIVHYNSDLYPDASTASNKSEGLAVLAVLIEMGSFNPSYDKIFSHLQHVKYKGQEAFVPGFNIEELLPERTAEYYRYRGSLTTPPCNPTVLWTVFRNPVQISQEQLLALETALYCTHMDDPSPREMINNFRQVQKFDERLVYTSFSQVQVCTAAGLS
Excerpt: as §1

[7] = target: T3, Fc-fusion protein of human carbonic …; assay: SPR, captured hCAIX-Fc; pKD category A: >8.0
[8] = target: T5, human carbonic anhydrase XIV (CAXIV), biotinylated (human, UniProt Q9ULX7 16-290, biotinylated); assay: SPR, biotinylated CAXIV captured (Biotin CAPture)
T5 construct: Bought (SinoBiological Cat #10458-H08H); also called hCAXIV-bio
T5 sequence (Q9ULX7 16-290 limits assumed): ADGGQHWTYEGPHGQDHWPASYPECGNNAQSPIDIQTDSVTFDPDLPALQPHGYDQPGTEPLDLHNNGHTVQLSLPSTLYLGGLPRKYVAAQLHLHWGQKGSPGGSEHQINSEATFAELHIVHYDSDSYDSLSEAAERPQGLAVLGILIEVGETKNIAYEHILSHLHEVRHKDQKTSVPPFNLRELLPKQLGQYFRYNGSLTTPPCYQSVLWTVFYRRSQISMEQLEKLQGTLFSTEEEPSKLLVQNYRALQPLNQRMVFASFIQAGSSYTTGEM
Excerpt: as §1

[9] = target: T6, murine carbonic anhydrase 9 (CAIX) (mouse, UniProt Q8VHB5 32-437); assay: radioligand binding, 111In-labeled compound, CHO cells with mouse CAIX; pKD category A: >8.0
T6 construct: On transfected CHO-VGT cells; also called mouse CAIX
T6 sequence (Q8VHB5 32-437 limits assumed): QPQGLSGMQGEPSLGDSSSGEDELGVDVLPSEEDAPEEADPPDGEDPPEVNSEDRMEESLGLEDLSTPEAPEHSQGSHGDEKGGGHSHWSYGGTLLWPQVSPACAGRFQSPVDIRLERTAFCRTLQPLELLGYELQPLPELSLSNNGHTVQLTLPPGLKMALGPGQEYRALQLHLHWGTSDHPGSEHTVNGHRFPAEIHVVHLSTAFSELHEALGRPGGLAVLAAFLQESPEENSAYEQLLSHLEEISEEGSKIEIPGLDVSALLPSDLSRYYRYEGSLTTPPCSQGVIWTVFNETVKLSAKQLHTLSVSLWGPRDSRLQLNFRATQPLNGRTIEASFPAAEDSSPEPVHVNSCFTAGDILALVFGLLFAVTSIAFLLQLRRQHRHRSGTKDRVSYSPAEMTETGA
Protocol: (§2) CHO-VGT cells were transfected with the human, dog, and mouse CAIX (InSCREENex GmbH) and cultured in Ham's F-12 medium (Sigma-Aldrich #N4888) supplemented with 10% fetal bovine serum (FCS), 2 mM L-glutamine, 100 U/mL Penicillin, and 0.1 mg/mL streptomycin. […] Cell concentrations were adjusted to 3×10⁵ mL⁻¹, and 1.000 μL of the suspension per well were dispensed into flat-clear-bottom 24 well plates.
(§3) Approximately 24 hours after re-seeding, the medium was aspirated and the cells were washed once with 1000 μL assay medium (Ham's medium without additives). To determine total binding, 700 μL of assay medium and 100 μL of the radioligand dilutions were added to the wells in triplicates. To determine non-specific binding, 600 μL of binding medium, 100 μL of the radioligand dilutions and 100 μL of a blocking solution containing 8 μM non-labeled compound were added to the wells in triplicates. […] An aliquot of each radioligand dilution was included in the gamma counter measurements to allow for determination of their actual concentrations via their known specific activity.

[10] = target: T7, canine carbonic anhydrase 9 (CAIX) (dog); assay: radioligand binding, 111In-labeled compound, CHO cells with dog CAIX; pKD category A: >8.0
T7 construct: On transfected CHO-VGT cells; also called dog CAIX
T7 sequence (chain, as listed by the source limits assumed): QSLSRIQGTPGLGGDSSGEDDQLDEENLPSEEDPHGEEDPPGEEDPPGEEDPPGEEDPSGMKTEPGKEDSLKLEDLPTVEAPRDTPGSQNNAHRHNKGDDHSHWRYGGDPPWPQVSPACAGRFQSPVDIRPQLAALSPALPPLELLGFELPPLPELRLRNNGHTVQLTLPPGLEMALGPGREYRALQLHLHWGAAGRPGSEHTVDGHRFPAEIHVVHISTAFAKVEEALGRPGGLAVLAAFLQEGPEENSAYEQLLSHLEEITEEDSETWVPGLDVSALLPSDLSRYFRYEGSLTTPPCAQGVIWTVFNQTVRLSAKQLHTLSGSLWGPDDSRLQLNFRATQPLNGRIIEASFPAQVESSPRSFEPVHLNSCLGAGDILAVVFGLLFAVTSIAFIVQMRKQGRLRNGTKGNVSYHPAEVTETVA
Protocol: as §2, §3

[11] = target: T1, human carbonic anhydrase IX (CAIX); assay: radioligand binding, 111In-labeled compound, CHO cells with human CAIX; pKD category A: >8.0
Protocol: as §2, §3

[12] = target: T8, canine carbonic anhydrase 9 (CAIX) (dog); assay: radioligand saturation binding on CHO-dgCAIX cells, 8 h at 37 °C, experiment iii
T8 construct: Expressed on transfected CHO cells (CHO-dogCA9); also called dgCAIX; dog CAIX
T8 sequence (chain, as listed by the source limits assumed): as above
Protocol: (§4) The radioligand saturation binding on CHO-huCAIX and dgCAIX was determined as follows. […] To determine total binding, 700 μL of binding medium and 100 μL of the radioligand dilutions were added to the wells in triplicates. […] The plates were incubated for 8 h at 37° C. under standard cell culture conditions (5% CO2). At the end of the incubation time the plates were placed on ice while aspirating the radioligand solutions. Aliquots of the 20 nM supernatants were transferred to HPLC vials for analysis of radioligand stability over the incubation time. Subsequently, the cells were washed with ice-cold PBS (0.5 mL, 1 mL, 1 mL). 300 μL of RIPA buffer containing PIC was added to each well and the plates were placed on a shaker for 10 min at ambient temperature. 200 μL of the cell lysate of each well was transferred to gamma-counting tubes. Their associated radioactivity was counted using a gamma counter and normalized to the measured protein concentration of each well (see chapter 6.3.7 BCA protein assay). An aliquot of each radioligand dilution was included in the gamma counter measurements to allow for determination of the actual radioligand concentrations in the dilution series.

[13] = target: T9, canine carbonic anhydrase 9 (CAIX) (dog); assay: radioligand saturation binding on CHO cells with dog CAIX, 8 h at 37 C
T9 construct: also called dog CAIX; dgCAIX
T9 sequence (chain, as listed by the source limits assumed): as above
Protocol: as §4

t1/2 (dissociation half-life) [1] [h] | pKD [3] [pkd] | pKD [4] [pkd] | t1/2 (half-life of the complex, SPR) [5] [h] | pKD [6] [pkd] | pKD [7] [pkd] | pKD [8] [pkd] | Binder | other results
1.65 |  |  |  |  |  |  | {DOTA-PPAc}-QCE[dP]D[Phe(3-NHCO(CH2)3SO2NH2)]LTWSC-NH2 (linker 2-11 via mXylylene, Synthetic cyclic peptide with uncomplexed DOTA; X stands for the non-natural residue Af3(Cpsu); also called DPI-4452; 3BP-4452) [DOTA-PPAc-Gln-[Cys(3MeBn)-Glu-pro-Asp-Af3(Cpsu)-Leu-Thr-Trp-Ser-Cys]-NH2] | 
 | < 6 | > 8 | > 0.25 | < 6 | > 8 | < 6 | {DOTA}-ECE[dP]D[Phe(3-NHCO(CH2)3SO2NH2)]LTW[Dap]C-NH2 (lactam 1-10; linker 2-11 via mXylylene, also called DPI-4503) [3BP-4503] | pIC50 [2]: > 8 pic50
 |  |  |  |  |  |  | {111In‑DOTA}-ECE[dP]D[Phe(3-NHCO(CH2)3SO2NH2)]LTW[Dap]C-NH2 (lactam 1-10; linker 2-11 via mXylylene, also called 3BP-4503 (111In-labeled)) [111In-3BP-4503] | pKD [9]: > 8 pkd; pKD [10]: > 8 pkd; pKD [11]: > 8 pkd
 | < 6 | > 8 | > 0.25 | < 6 | > 8 | < 6 | {DOTA-APAc″}-VDCE[dP]DWLTW[Dap]C-NH2 (lactam 2-11; linker 3-12 via mXylylene) [3BP-4174] | 
 |  |  |  |  |  |  | {DOTA}-QCE[dP]D[Aph(SaPr)(3)]LTWSC-NH2 (linker 2-11 via mXylylene; also: 111In complexed by DOTA, Cyclic peptide with chelator DOTA complexing In-111; X stands for the non-natural residue Aph(SaPr); also called ^111In-DOTA-Q-[C(3MeBn)-EPD-Aph(SaPr)-LTWSC]-NH2; ^111In-3BP-4501) [[^111In]In-DPI-4501] | pKd [12]: 9.6 -log10(M)
 |  |  |  |  |  |  | {DOTA-PPAc}-QCE[dP]D[Phe(3-NHCO(CH2)3SO2NH2)]LTWSC-NH2 (linker 2-11 via mXylylene; also: 111In complexed in DOTA, also called 111In-3BP-4452; In-111-labeled DPI-4452) [[111In]In-DPI-4452: 111In-DOTA-PPAc-Q-[C(3MeBn)-EPD-Af3(Cpsu)-LTWSC]-NH2] | pKd [13]: ≥ 9
2.05 |  |  |  |  |  |  | {DOTA-PPAc(3)}-QCE[dP]D[Phe(3-NHCO(CH2)3SO2NH2)]LTWSC-NH2 (linker 2-11 via mXylylene; also: natLu chelated by N-terminal DOTA, Lutetium complex of DPI-4452; also called 3BP-4555) [natLu-DPI-4452 (LuDOTA-PPAc-Gln-[Cys(3MeBn)-Glu-pro-Asp-Af3(Cpsu)-Leu-Thr-Trp-Ser-Cys]-NH2)] | 
1.87 |  |  |  |  |  |  | {DOTA-PPAc(3)}-QCE[dP]D[Phe(3-NHCO(CH2)3SO2NH2)]LTWSC-NH2 (linker 2-11 via mXylylene; also: natGa chelated by N-terminal DOTA, Gallium complex of DPI-4452; also called 3BP-4529) [natGa-DPI-4452 (GaDOTA-PPAc-Gln-[Cys(3MeBn)-Glu-pro-Asp-Af3(Cpsu)-Leu-Thr-Trp-Ser-Cys]-NH2)] | 
 | < 6 | > 8 | > 0.25 | < 6 | > 8 | < 6 | {DOTA-APAc}-VYCE[dP]DWLTWSC-NH2 (linker 3-12 via mXylylene; reading uncertain) [3BP-3583] | 
